The text below walks through data of article PMC6926487.

In the assay the target is GST-Rac1A, active (GTPγs-bound), P34144. As to the kind of experiment: pull-down (GST-Rac1A), immunoblot quantification. The conditions noted are these: chain shown with the change, mean ± SEM, n = 3, parent: 1.9% ± 0.9% SEM. On the technique in general: Immunoblotting shows a protein as a band on a membrane.

B1: GFP-WASP (Dictyostelium Wiskott-Aldrich syndrome protein, wild type) I173A; F179A (protein)
chain: MGSPTISDQEKSQVAFIAGSSSDIHSTTVARLYEGRQGRWEFMAVGIVSVVSNRVDKTNYIKVFDLKANYRIIFEQEIYDTFEFQKQRDFFFAFEGDSCVYGLSFADVTEAAEFYGQLLNCKQGNIGKTAAINPNTSSTKITASTPAPKVEKKKEKKGFMSKFFSSEEKDLEASAPTNAKHESHIGWDPENGFDIKNIPPDWRKLFQSAGIKKSELKNAETAQFIVNIIGEQMVGGSAPPPTQPGRSAPPAPPSSNQPGRSAPPPPPSVGKSAPPPPPPSHKTPAAPPSGGGAPPPPPPPPPPSSGPPPPPPPMASAPPSSGGGGASGGGRNDLLASIRSGASLKAVDKTNPLPDIQSLGNEGSRSLADTLAAAMANRRGGMREDDEEDDDDDDEWSDY
With B1, the response (% binding to GTPγS-loaded Rac1A) came out at 0.1.
